Laboratory results reported in patent US20250243278A1 (SHANGHAI HENLIUS BIOTECH, published 2025).

How the values were obtained:
[1] = molecular target: T1, recombinant human B7H3 extra cellular domain (ECD) protein (human, UniProt Q5ZPR3 29-461); test: ELISA on human B7H3 (h-B7H3 ECD coated plates), OD450
T1 construct: also called h-B7H3 ECD; h-B7H3; not shown: C-terminal poly-histidine tag or Fc tag
T1 sequence: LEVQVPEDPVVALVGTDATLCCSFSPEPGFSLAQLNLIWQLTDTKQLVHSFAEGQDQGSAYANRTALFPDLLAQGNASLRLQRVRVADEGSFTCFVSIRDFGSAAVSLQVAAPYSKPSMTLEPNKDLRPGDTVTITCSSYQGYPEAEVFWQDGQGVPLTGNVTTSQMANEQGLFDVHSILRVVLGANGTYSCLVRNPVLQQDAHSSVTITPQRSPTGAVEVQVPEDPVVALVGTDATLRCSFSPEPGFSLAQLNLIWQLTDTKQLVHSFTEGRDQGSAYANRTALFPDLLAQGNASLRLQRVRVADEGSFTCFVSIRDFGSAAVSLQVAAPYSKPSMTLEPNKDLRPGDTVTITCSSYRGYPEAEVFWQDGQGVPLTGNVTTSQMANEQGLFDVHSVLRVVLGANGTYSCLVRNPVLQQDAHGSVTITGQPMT

human B7H3 on A498 cells [2] = molecular target: T2, human B7H3 on A498 cells (human, UniProt Q5ZPR3 29-534); test: flow cytometry, whole cell binding to B7H3+ A498 cells, MFI
T2 construct: Endogenous B7H3 of A498 human kidney carcinoma cells; also called B7H3 positive A498 cells; human B7H3+ A498 cells
T2 sequence: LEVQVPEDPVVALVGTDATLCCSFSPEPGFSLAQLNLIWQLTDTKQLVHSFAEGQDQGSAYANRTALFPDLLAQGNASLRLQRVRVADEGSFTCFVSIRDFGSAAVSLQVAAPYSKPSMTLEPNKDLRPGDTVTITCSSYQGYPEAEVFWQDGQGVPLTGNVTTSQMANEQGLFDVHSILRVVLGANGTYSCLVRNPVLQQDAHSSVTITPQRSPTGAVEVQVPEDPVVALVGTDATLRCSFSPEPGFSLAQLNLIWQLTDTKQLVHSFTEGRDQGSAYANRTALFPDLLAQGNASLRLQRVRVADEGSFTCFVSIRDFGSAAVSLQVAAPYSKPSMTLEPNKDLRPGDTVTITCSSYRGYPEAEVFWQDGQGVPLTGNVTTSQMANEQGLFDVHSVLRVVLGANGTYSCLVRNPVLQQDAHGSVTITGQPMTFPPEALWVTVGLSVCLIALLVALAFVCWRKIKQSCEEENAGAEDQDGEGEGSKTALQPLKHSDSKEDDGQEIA

human B7H3 on A498 cells [3] = molecular target: T2, human B7H3 on A498 cells; test: flow cytometry, whole cell binding to B7H3+ A498 cells, MFI (FITC)
cynomolgus B7H3 = cynomolgus B7H3 (cynomolgus); test: ELISA on cynomolgus B7H3, OD450
human B7H3 on A498 cells [4] = molecular target: T2, human B7H3 on A498 cells; test: flow cytometry, whole cell binding to B7H3+ A498 cells, MFI (FITC); remark: listed apart in the source
human B7H3 on A498 cells [5] = molecular target: T2, human B7H3 on A498 cells; test: flow cytometry, whole cell binding to B7H3+ A498 cells, MFI; fit value printed for the flat curve of the negative control

B1: 5H8 VHH (VHH)
VHH: QVKLEESGGGQVQAGDSRTLSCVASGRTFSSDSMAWFREAPGKARGFVAVVSRSAGSTWYEDSVKGRFTISRDNAKNTVYLQMNSLKPEDTAVYYCAATDIATMPWLMVSSRYDYWGQGTQVTVSS
notes: VHH secreted into SS320 supernatant from phagemid pADL-23c, as screened by ELISA
[1]
  EC50 (read off the curve): ~0.08 mg/L

B2: 19c10-V2 (Fc fusion)
chain: EVQLVESGGGLVQPGGSLRLSCAASGSTFSKYAMGWFRQAPRKARGFVGAVTSAGSTWYADSVKGRFTISRDNSKNTLYLQMNSLRAEDTAVYYCAATTIATMPWLMVSSRYAYWGQGTLVTVSS
notes: Humanized FR1, FR3 and FR4; also called humanized 19c10 clone; not shown: purified by protein A and detected with anti-human IgG, so probably a human Fc
Human B7H3 on A498 cells [2]
  EC50: 0.537 nM

B3: 19c10-V3 (Fc fusion, not shown: a dimerising Fc or GST)
chain: EVQLVESGGGLVQPGGSLRLSCAASGSTFSKYAMGWFRQAPGKARGFVGAVTSAGSTWYADSVKGRFTISRDNSKNTLYLQMNSLRAEDTAVYYCAATTIATMPWLMVSSRYAYWGQGTLVTVSS
notes: FR2 humanized further from 19c10-V2; detected with anti-human IgG; also called humanized 19c10 clone
Human B7H3 on A498 cells [3]
  EC50: 5.52 nM
Human B7H3 on A498 cells [2]
  EC50: 1.69 nM

B4: 14C4 VHH (VHH)
VHH: QVQLVESGGGVVQAGGSLRLSCAASGRTFSSYGMGWFRQAPRKARGFVGAVTSAGSTWYEDSVKGRFTISRDNAKNTVYLQMNSLKPEDTAVYYCAATTIATMPWLMVSSRYAYWGQGTQVTVSS
notes: VHH secreted into SS320 supernatant, as screened by ELISA
Cynomolgus B7H3
  EC50 (read off the curve): ~0.06 mg/L

B5: Reference Ab 2 (an h1702 analog) (antibody, V domains shown)
VH: QVQLQQPGAELVKPGASVKLSCKASGYTFTSYWMHWVKQRPGQGLEWIGMIHPDSGTTNYNEKFRSKATLTVDKSSSTAYMQLSSLTSEDSAVYYCAVYYGSTYWYFDVWGTGTTVTVSS
VL: DVVMTQTPLSLPVSLGDQAYISCRSSQSLVHINGNTYLHWYRQKPGQSPKLLIYKVSNRFSGVPDRFSGSGSGTDFTLKISRVEAEDLGVYFCSQSTHFPFTFGSGTKLEIK
Human B7H3 on A498 cells [4]
  EC50: 0.85 nM

B6: Reference Ab 4 (antibody, V domains shown)
VH: QVQLQQPGAELVKPGASVKLSCKASGYSFTSYWMHWVKQRPGQGLEWIGMIHPNSGSNNYNEKFKSKATLTVDKSSNTAYMQLSSLTSEDSAVYYCARRLGLHFDYWGQGTTLTVSS
VL: DIVMTQSQKFMSTPVGDRVSITCKASQNVGTAVAWYQQKPGQSPKLLIYSASNRYTGVPDRFTGSGSGTDFTLTISNMQSEDLADYFCQQYSSYPYTFGGGTKLEIK
Human B7H3 on A498 cells [5]
  EC50: 40.3 nM
